T1: sFas ligand (Alexis Corporation) with a FLAG epitope tag at its N-terminus (human, UniProt P48023 103-281)
T1 sequence (looked up): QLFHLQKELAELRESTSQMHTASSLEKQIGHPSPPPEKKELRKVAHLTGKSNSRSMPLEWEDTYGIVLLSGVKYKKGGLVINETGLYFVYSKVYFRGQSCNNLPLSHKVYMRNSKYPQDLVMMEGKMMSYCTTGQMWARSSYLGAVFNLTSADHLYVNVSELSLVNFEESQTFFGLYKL

T2: Murine FasL on transfected murine L929 cells (murine, UniProt P41047 1-279)
T2 sequence (looked up): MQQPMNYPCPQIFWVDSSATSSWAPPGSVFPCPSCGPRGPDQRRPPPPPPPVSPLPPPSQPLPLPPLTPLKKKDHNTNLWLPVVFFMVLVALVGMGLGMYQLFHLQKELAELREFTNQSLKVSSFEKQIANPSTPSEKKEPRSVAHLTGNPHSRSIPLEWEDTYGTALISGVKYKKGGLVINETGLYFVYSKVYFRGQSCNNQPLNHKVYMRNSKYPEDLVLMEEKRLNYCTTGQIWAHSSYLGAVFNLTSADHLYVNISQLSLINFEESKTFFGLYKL

T3: TNFR-6 alpha-(His) (human, UniProt O95407 30-300)
T3 construct: also called TNFR-6α; DcR3
T3 sequence: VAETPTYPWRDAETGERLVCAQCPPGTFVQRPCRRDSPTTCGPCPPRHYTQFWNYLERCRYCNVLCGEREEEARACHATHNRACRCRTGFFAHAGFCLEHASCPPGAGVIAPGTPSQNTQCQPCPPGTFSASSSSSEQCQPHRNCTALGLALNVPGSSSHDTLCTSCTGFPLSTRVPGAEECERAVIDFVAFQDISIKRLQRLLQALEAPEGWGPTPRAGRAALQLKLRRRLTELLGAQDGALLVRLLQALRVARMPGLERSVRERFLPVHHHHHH

T4: Full-length human TR6 (without Fc) (human, UniProt O95407 30-300)
T4 construct: Full-length cDNA expressed in Sf9 cells with the natural leader; also called TR6 non-Fc; TR6-non-Fc
T4 sequence: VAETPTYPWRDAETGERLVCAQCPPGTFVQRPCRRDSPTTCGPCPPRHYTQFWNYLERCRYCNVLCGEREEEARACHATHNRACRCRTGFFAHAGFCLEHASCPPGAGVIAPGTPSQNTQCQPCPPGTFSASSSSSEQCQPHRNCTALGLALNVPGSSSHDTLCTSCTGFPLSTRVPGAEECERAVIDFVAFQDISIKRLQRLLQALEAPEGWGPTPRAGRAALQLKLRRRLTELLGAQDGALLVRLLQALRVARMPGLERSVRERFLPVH

T5: TNF-gamma-beta, full length, on transfected cells (human, UniProt O95150 1-251)
T5 construct: whole, on cells; also called TL1β
T5 sequence (looked up): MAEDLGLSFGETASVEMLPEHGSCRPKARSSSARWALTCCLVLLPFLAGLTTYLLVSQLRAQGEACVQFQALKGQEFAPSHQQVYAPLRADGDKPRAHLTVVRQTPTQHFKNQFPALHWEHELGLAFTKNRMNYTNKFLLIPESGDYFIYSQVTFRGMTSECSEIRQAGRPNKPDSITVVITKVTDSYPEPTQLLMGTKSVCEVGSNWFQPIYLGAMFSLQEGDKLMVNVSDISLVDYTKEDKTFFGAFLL

T6: FLAG-tagged soluble form of TNF-gamma-beta (aa 72-251) (human, UniProt O95150 72-251)
T6 construct: also called FLAG-TL1β; FLAG-TNF-gamma-beta
T6 sequence (looked up): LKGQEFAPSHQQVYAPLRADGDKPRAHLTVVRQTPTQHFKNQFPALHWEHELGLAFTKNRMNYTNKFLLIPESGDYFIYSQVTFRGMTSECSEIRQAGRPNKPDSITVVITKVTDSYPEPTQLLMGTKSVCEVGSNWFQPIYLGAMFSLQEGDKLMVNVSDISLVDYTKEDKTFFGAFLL

B1: TNFR-6 alpha-Fc fusion protein (full length TNFR-6 alpha, amino acids 1-300 of SEQ ID NO:2, fused to the Fc domain of human IgG1) (Fc fusion, not shown: a dimerising Fc or GST)
chain: T4 sequence
B2: AIM-II, full sequence, on stably transfected HEK 293 EBNA cells (ligand, UniProt O43557 1-240, looked up)
chain: MEESVVRPSVFVVDGQTDIPFTRLGRSHRRQSCSVARVGLGLLLLLMGAGLAVQGWFLLQLHWRLGEMVTRLPDGPAGSWEQLIQERRSHEVNPAAHLTGANSSLTGSGGPLLWETQLGLAFLRGLSYHDGALVVTKAGYYYIYSKVQLGGVGCPLGLASTITHGLYKRTPRYPEELELLVSQQSPCGRATSSSRVWWDSSFLGGVVHLEAGEKVVVRVLDERLVRLRDGTRSYFGAFMV
notes: whole, on cells
B3: Extra-cellular portion of FasL (Oncogene Research Products), amino acids 103-281 (ligand, human, UniProt P48023 103-281, looked up)
chain: T1 sequence (looked up)
notes: range 103-281; Immobilised on a BIAcore chip (2020 RU); also called immobilized FasL
B4: Soluble human FLAG-FasL (synthesized at HGS) (ligand, UniProt P48023 130-281, looked up, not shown: small tags and cut ends)
chain: QIGHPSPPPEKKELRKVAHLTGKSNSRSMPLEWEDTYGIVLLSGVKYKKGGLVINETGLYFVYSKVYFRGQSCNNLPLSHKVYMRNSKYPQDLVMMEGKMMSYCTTGQMWARSSYLGAVFNLTSADHLYVNVSELSLVNFEESQTFFGLYKL
notes: called trimerized in the kinetic BIAcore run; cross-linked with FLAG antibody in the cell assays; also called FasL-Flag; trimerized FLAG-FasL
B5: DcR1-Fc (Fc fusion, UniProt O14798 26-236, looked up, not shown: a dimerising Fc or GST)
chain: ATTARQEEVPQQTVAPQQQRHSFKGEECPAGSHRSEHTGACNPCTEGVDYTNASNNEPSCFPCTVCKSDQKHKSSCTMTRDTVCQCKEGTFRNENSPEMCRKCSRCPSGEVQVSNCTSWDDIQCVEEFGANATVETPAAEETMNTSPGTPAPAAEETMNTSPGTPAPAAEETMTTSPGTPAPAAEETMTTSPGTPAPAAEETMITSPGTPA
notes: extracellular domain
B6: DcR2-Fc (Fc fusion, UniProt Q9UBN6 56-211, looked up, not shown: a dimerising Fc or GST)
chain: ATIPRQDEVPQQTVAPQQQRRSLKEEECPAGSHRSEYTGACNPCTEGVDYTIASNNLPSCLLCTVCKSGQTNKSSCTTTRDTVCQCEKGSFQDKNSPEMCRTCRTGCPRGMVKVSNCTPRSDIKCKNESAASSTGKTPAAEETVTTILGMLASPYH
notes: extracellular domain
B7: OPG-Fc (Fc fusion, UniProt O00300 22-201, looked up, not shown: a dimerising Fc or GST)
chain: ETFPPKYLHYDEETSHQLLCDKCPPGTYLKQHCTAKWKTVCAPCPDHYYTDSWHTSDECLYCSPVCKELQYVKQECNRTHNRVCECKEGRYLEIEFCLKHRSCPPGFGVVQAGTPERNTVCKRCPDGFFSNETSSKAPCRKHTNCSVFGLLLTQKGNATHDNICSGNSESTQKCGIDVTL
notes: extracellular domain
B8: RANK-Fc (Fc fusion, UniProt Q9Y6Q6 30-212, looked up, not shown: a dimerising Fc or GST)
chain: IAPPCTSEKHYEHLGRCCNKCEPGKYMSSKCTTTSDSVCLPCGPDEYLDSWNEEDKCLLHKVCDTGKALVAVVAGNSTTPRRCACTAGYHWSQDCECCRRNTECAPGLGAQHPLQLNKDTVCKPCLAGYFSDAFSSTDKCRPWTNCTFLGKRVEHHGTEKSDAVCSSSLPARKPPNEPHVYLP
notes: extracellular domain
B9: AITR-Fc (Fc fusion, UniProt Q9Y5U5 26-162, looked up, not shown: a dimerising Fc or GST)
chain: QRPTGGPGCGPGRLLLGTGTDARCCRVHTTRCCRDYPGEECCSEWDCMCVQPEFHCGDPCCTTCRHHPCPPGQGVQSQGKFSFGFQCIDCASGTFSGGHEGHCKPWTDCTQFGFLTVFPGNKTHNAVCVPGSPPAEP
notes: extracellular domain
B10: TACI-Fc (extracellular domain of human TAC1, aa 1-159, fused to the Fc domain of human IgG1) (Fc fusion, UniProt O14836 1-159, looked up, not shown: a dimerising Fc or GST)
chain: MSGLGRSRRGGRSRVDQEERFPQGLWTGVAMRSCPEEQYWDPLLGTCMSCKTICNHQSQRTCAAFCRSLSCRKEQGKFYDHLLRDCISCASICGQHPKQCAYFCENKLRSPVNLPPELRRQRSGEVENNSDNSGRYQGLEHRGSEASPALPGLKLSADQ
notes: range 1-159; also called TAC1-Fc
B11: OX40-Fc (Fc fusion, UniProt P43489 29-214, looked up, not shown: a dimerising Fc or GST)
chain: LHCVGDTYPSNDRCCHECRPGNGMVSRCSRSQNTVCRPCGPGFYNDVVSSKPCKPCTWCNLRSGSERKQLCTATQDTVCRCRAGTQPLDSYKPGVDCAPCPPGHFSPGDNQACKPWTNCTLAGKHTLQPASNSSDAICEDRDPPATQPQETQGPPARPITVQPTEAWPRTSQGPSTRPVEVPGGRA
notes: extracellular domain
B12: TNFR1-Fc (Fc fusion, UniProt P19438 30-211, looked up, not shown: a dimerising Fc or GST)
chain: LVPHLGDREKRDSVCPQGKYIHPQNNSICCTKCHKGTYLYNDCPGPGQDTDCRECESGSFTASENHLRHCLSCSKCRKEMGQVEISSCTVDRDTVCGCRKNQYRHYWSENLFQCFNCSLCLNGTVHLSCQEKQNTVCTCHAGFFLRENECVSCSNCKKSLECTKLCLPQIENVKGTEDSGTT
notes: extracellular domain; also called TNFRLFc

Columns and labels:
[1] = molecular target: T1, sFas ligand (Alexis Corporation) with a …; assay: cell-based or functional assay
[2] = molecular target: T2, Murine FasL on transfected murine L929 …; assay: cell-based or functional assay
[3] = molecular target: B4; assay: cell-based or functional assay
[4] = molecular target: T3, TNFR-6 alpha-(His); assay: flow cytometry on AIM-II-transfected HEK 293 EBNA cells
[5] = molecular target: B1; assay: BIAcore
[6] = molecular target: B1; assay: BIAcore, TR6-Fc immobilized, trimerized FLAG-FasL soluble
[7] = molecular target: T4, Full-length human TR6 (without Fc); assay: BIAcore, FasL-Flag soluble
[8] = molecular target: T5, TNF-gamma-beta, full length, on …; assay: flow cytometry on HEK293F cells expressing full length TNF-gamma-beta
Procedure: One million cells, in 0.1 ml of FACS buffer (PBS, 0.1% BSA, 0.1% NaN₃), were incubated with 0.1-1 microgram of protein or antibody at RT for 15 min. The cells were washed with 3 ml of FACS buffer, reacted with biotinylated primary antibody, and stained with PE-conjugated secondary antibody at RT for 15 min. Cells were then washed again, resuspended in 0.5 microgram/ml of propidium iodide, and live cells were gated and analyzed on a FACScan using the CellQuest software (BD Biosciences).

[9] = molecular target: T6, FLAG-tagged soluble form of …; assay: coimmunoprecipitation with protein A-Sepharose, anti-Flag western blot
Source text: The beads were then precipitated and washed extensively with PBST buffer (PBS, 0.5% Triton X-100) before boiled in SDS-sample buffer. Proteins were resolved on 4-20% Tris-Glycine gels (NOVEX), transferred to nitrocellulose membranes, and blotted with anti-Flag M2 monoclonal antibody (1 microgram/ml, Sigma) and horseradish peroxidase (HRP)-conjugated goat anti-mouse IgG antibody (0.5 microgram/ml).

Binder | binding result [8] | also measured
B1 | – | IC50 (read off the curve): TR6Fc concentration giving half rescue of Jurkat viability from sFasL 20 ng (Alamar blue, OD 570 nm - 630 nM) [1]: ~5 ng/mL; IC50 of inhibition of killing of A20 target cells by murine FasL-transfected L929 cells [2]: ~1 ng/mL; potency against FasL-induced Jurkat cytotoxicity relative to Fas-Fc [3]: 100 fold
B2 | – | binding result [4]: binds
B3 | – | binding result [5]: binds
B4 | – | Kd [6]: 4.6 nM; Kd [7]: 17 nM
B5 | no binding | –
B6 | no binding | –
B7 | no binding | –
B8 | no binding | –
B9 | no binding | –
B10 | no binding | binding result [9]: no binding
B11 | no binding | –
B12 | no binding | –

Source: patent publication US20060234285A1 (Human Genome Sciences, published 2006)
